Experiment [1] concerns the target T1, hu-M-IL1RAP construct, positions S21-T367 (extracellular domain of the membrane form of human IL1RAP) (human, UniProt Q9NPH3 21-367).
T1 construct: Biotinylated when captured on the Biacore chip
T1 sequence: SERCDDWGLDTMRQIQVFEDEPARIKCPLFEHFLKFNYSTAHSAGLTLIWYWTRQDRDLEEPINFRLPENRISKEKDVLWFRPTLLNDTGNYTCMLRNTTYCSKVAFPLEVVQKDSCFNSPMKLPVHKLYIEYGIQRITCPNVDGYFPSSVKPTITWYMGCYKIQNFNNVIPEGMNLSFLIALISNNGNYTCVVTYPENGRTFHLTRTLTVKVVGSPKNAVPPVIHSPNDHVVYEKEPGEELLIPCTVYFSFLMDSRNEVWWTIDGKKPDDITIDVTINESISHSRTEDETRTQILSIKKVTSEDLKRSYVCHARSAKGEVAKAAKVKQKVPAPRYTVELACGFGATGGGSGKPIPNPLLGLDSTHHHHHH
As to the kind of experiment: SPR, Fab analyte, 25 C.
Description: (§1) Surface plasmon resonance (SPR) analysis was used to determine binding affinity for hu-M-IL1RAP of the purified Fabs containing the selected single, double, and triple mutations in either the VL or VH regions using a BIACORE™ 8K instrument. […] For kinetics measurements, 5 nM biotinylated hu-M-IL1RAP was captured at 10 μL/min to achieve ˜50 response units in the second flow cell (FC2). FC1 was kept as a reference. […] The sensorgrams were recorded and subjected to reference and buffer subtraction before data analysis with the BIACORE® 8K Evaluation Software (version 1.1.1.7442). Association rates (kₒₙ) and dissociation rates (koff) were calculated using a simple one-to-one Langmuir binding model. The equilibrium dissociation constant (KD) was calculated as the ratio of koff/kₒₙ.

Experiment [2] addresses T1, hu-M-IL1RAP construct, positions …. Put plainly: SPR, Fab against parent Fab. For orientation: SPR reads the build-up and loss of mass on a sensor chip optically.
Experiment [3] shares this target. Put plainly: phage display selection of affinity maturation libraries + NGS; enrichment of the mutation R96A (VH).
Description: (§2) For the first panning round, plates and phage libraries were blocked in PBS buffer containing 0.05% TWEEN® 20 and 1% BSA for either 1 hour (plates) or 30 minutes (phage libraries). Plates were washed in Wash Buffer (PBS buffer containing 0.05% TWEEN® 20) and incubated with blocked phage libraries for 2 hours with shaking. Non-specifically bound phage was removed by washing vigorously with Wash Buffer. […] Non-specific interactions were inhibited by adding 1/10th v/v 1% BSA.
(§3) For panning rounds three through five, phage libraries were incubated with blocking buffer (PBS buffer with 1% BSA in round 3 and SUPERBLOCK™ PBS buffer (Pierce) and 0.05% TWEEN® 20 in rounds 4 and 5) for 30 minutes and then incubated with decreasing concentrations of biotinylated hu-M-IL1RAP for 1 hour. Hu-M-IL1RAP-bound phage were captured on blocked neutravidin-coated plates, washed extensively with Wash Buffer, and eluted and neutralized in the same manner as in rounds 1 and 2. In the final selection round, 1000× non-biotinylated hu-M-IL1RAP was added as a competitor to increase the selection stringency.
(§4) To extract sequences from affinity maturation libraries using NGS, phagemid double stranded DNA was isolated from E. coli XL-1 cells carrying phagemids from the initial phage library (unsorted libraries) and from the second and third rounds of solution selection (sorted libraries). […]
The target is the same in experiment [4]. As to the kind of experiment: phage display selection of affinity maturation libraries + NGS; enrichment of the mutation A51R (VL).
Experiment [5] shares this target. As to the kind of experiment: phage display selection of affinity maturation libraries + NGS; enrichment of the mutation T94I (VL).
Description: as §2, §3, §4
The target is the same in experiment [6]. Put plainly: phage display selection of affinity maturation libraries + NGS; enrichment of the mutation A51D (VL).
Experiment [7] shares this target. As to the kind of experiment: phage display selection of affinity maturation libraries + NGS; enrichment of the mutation A51Y (VL).
Description: as §2, §3, §4
The target is the same in experiment [8]. As to the kind of experiment: SPR, Fab analyte, 37 C.
Description: as §1
In experiment [9] the target is T2, human IL1RAP (hu-IL1RAP) on human cells (human, UniProt Q9NPH3 21-570).
T2 sequence: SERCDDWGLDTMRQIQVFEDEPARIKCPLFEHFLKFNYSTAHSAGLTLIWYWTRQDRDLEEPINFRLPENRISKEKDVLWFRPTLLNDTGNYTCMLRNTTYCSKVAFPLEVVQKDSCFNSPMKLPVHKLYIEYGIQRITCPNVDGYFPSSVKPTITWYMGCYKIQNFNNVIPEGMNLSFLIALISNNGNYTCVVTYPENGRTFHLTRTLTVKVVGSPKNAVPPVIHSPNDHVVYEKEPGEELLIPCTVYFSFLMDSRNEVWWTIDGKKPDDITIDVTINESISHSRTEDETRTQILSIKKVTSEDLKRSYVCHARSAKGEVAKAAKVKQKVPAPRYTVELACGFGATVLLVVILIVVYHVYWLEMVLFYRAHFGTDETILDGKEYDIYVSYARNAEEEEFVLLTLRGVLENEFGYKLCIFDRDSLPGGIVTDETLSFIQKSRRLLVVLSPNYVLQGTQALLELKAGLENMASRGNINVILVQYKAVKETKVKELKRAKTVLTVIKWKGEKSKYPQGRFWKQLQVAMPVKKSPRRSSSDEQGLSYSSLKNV
Put plainly: cell-based or functional assay.

The target in experiment [10] is T1, hu-M-IL1RAP construct, positions …. As to the kind of experiment: phage display selection of affinity maturation libraries + NGS; enrichment of the mutation A51L (VL).
Description: as §2, §3, §4
Experiment [11] shares this target. As to the kind of experiment: phage display selection of affinity maturation libraries + NGS; enrichment of the mutation W92I (VL).
Description: as §2, §3, §4
The target is the same in experiment [12]. Put plainly: phage display selection of affinity maturation libraries + NGS; enrichment of the mutation T94V (VL).
Description: as §2, §3, §4
For experiment [13] the target is unchanged. As to the kind of experiment: phage display selection of affinity maturation libraries + NGS; enrichment of the mutation W92L (VL).

The Kd is the free concentration of one partner at which half of the binding sites on the other are occupied at equilibrium, for simple one-to-one binding. Higher therefore signals weaker binding. As usually defined, the koff is the first-order rate constant of dissociation. As usually defined, the kon is a measure of how fast the partners come together.

B1: H1 Fab (VH R96A) (Fab, V domains shown)
VH: EVQLVESGGGLVQPGGSLRLSCAASGFTFSNYAMSWVRQAPGKGLEWVATVTEGGDYNYYLDDVKGRFTISRDNAKNSLYLQMNSLRAEDTAVYYCARDAWPYFFDYWGQGTLVTVSS
VL: DIQMTQSPSSLSASVGDRVTITCRASENIYSNLAWYQQKPGKSPKLLVYGAKNLADGVPSRFSGSGSGTDYTLTISSLQPEDFATYYCQHFWTTPRTFGGGTKVEIK
notes: Fab with 8xHis tag
As for B1, in [1], the equilibrium dissociation constant (Kd) came to 0.125 nM, the koff was 0.000218 s⁻¹ and the kon came out at 1.75e+06 M⁻¹ s⁻¹. Moreover, in experiment [2], the “Fold Improvement in KD @ 25° C.” value was 2.7 fold. Moreover, in experiment [3], the “Enrichment ratio (at the highest selection stringency)” value came out at 4.55 ratio.

B2: K7 Fab (VL A51R) (Fab, V domains shown)
VH: EVQLVESGGGLVQPGGSLRLSCAASGFTFSNYAMSWVRQAPGKGLEWVATVTEGGDYNYYLDDVKGRFTISRDNAKNSLYLQMNSLRAEDTAVYYCARDRWPYFFDYWGQGTLVTVSS
VL: DIQMTQSPSSLSASVGDRVTITCRASENIYSNLAWYQQKPGKSPKLLVYGRKNLADGVPSRFSGSGSGTDYTLTISSLQPEDFATYYCQHFWTTPRTFGGGTKVEIK
notes: Fab with 8xHis tag
In experiment [1], B2 came in with a Kd of 0.0119 nM, a koff of 6.26e-05 s⁻¹ and a kon of 5.25e+06 M⁻¹ s⁻¹. In addition, the “Fold Improvement in KD @ 25° C.” value in experiment [2] was 28.3 fold. Moreover, the “Enrichment ratio (at the highest selection stringency)” value in experiment [4] was determined as 2.89 ratio.

B3: K14 Fab (VL T94I) (Fab, V domains shown)
VH: EVQLVESGGGLVQPGGSLRLSCAASGFTFSNYAMSWVRQAPGKGLEWVATVTEGGDYNYYLDDVKGRFTISRDNAKNSLYLQMNSLRAEDTAVYYCARDRWPYFFDYWGQGTLVTVSS
VL: DIQMTQSPSSLSASVGDRVTITCRASENIYSNLAWYQQKPGKSPKLLVYGAKNLADGVPSRFSGSGSGTDYTLTISSLQPEDFATYYCQHFWTIPRTFGGGTKVEIK
notes: Fab with 8xHis tag
With B3, in experiment [1], the Kd was 0.0913 nM, the koff turned out to be 0.000543 s⁻¹ and the kon came to 5.95e+06 M⁻¹ s⁻¹. For the same molecule, the “Fold Improvement in KD @ 25° C.” value in [2] was 3.69 fold. In addition, in [5], the “Enrichment ratio (at the highest selection stringency)” value is 1.74 ratio.

B4: K9 Fab (VL A51D) (Fab, V domains shown)
VH: EVQLVESGGGLVQPGGSLRLSCAASGFTFSNYAMSWVRQAPGKGLEWVATVTEGGDYNYYLDDVKGRFTISRDNAKNSLYLQMNSLRAEDTAVYYCARDRWPYFFDYWGQGTLVTVSS
VL: DIQMTQSPSSLSASVGDRVTITCRASENIYSNLAWYQQKPGKSPKLLVYGDKNLADGVPSRFSGSGSGTDYTLTISSLQPEDFATYYCQHFWTTPRTFGGGTKVEIK
notes: Fab with 8xHis tag
In [1], B4 returned a Kd of 0.021 nM, a koff of 0.000103 s⁻¹ and a kon of 4.93e+06 M⁻¹ s⁻¹. The “Fold Improvement in KD @ 25° C.” value in [2] was 16.1 fold. Further, the “Enrichment ratio (at the highest selection stringency)” value in experiment [6] was found to be 2.84 ratio.

B5: K10 Fab (VL A51Y) (Fab, V domains shown)
VH: EVQLVESGGGLVQPGGSLRLSCAASGFTFSNYAMSWVRQAPGKGLEWVATVTEGGDYNYYLDDVKGRFTISRDNAKNSLYLQMNSLRAEDTAVYYCARDRWPYFFDYWGQGTLVTVSS
VL: DIQMTQSPSSLSASVGDRVTITCRASENIYSNLAWYQQKPGKSPKLLVYGYKNLADGVPSRFSGSGSGTDYTLTISSLQPEDFATYYCQHFWTTPRTFGGGTKVEIK
notes: Fab with 8xHis tag
In experiment [1], B5 yielded a Kd of 0.00855 nM, a koff of 5.06e-05 s⁻¹ and a kon of 5.92e+06 M⁻¹ s⁻¹. For the same molecule, the “Enrichment ratio (at the highest selection stringency)” value in experiment [7] came out at 2.95 ratio. For the same molecule, in experiment [2], the “Fold Improvement in KD @ 25° C.” value stood at 39.4 fold and the “Fold Improvement in KD @ 37° C.” value is 8.99 fold. Also, in experiment [8], the Kd is 0.0298 nM, the koff amounted to 0.000153 s⁻¹ and the kon was 5.12e+06 M⁻¹ s⁻¹. Further, in experiment [9], the “HEK-Blue, IL-1β, % inhibition at 100 nM (Fab)” value is 100%; the “HEK-Blue, IL-1β, IC50 (Fab)” value is 0.66 nM; the “HEK-Blue, IL-33, % inhibition at 100 nM (Fab)” value was 98%; the “HEK-Blue, IL-33, IC50 (Fab)” value stood at 3.26 nM. In experiment [9], the “HEK-Blue, IL-36α, % inhibition at 100 nM (Fab)” value is 100% and the “HEK-Blue, IL-36α, IC50 (Fab)” value was 0.706 nM.

B6: K8 Fab (VL A51L) (Fab, V domains shown)
VH: EVQLVESGGGLVQPGGSLRLSCAASGFTFSNYAMSWVRQAPGKGLEWVATVTEGGDYNYYLDDVKGRFTISRDNAKNSLYLQMNSLRAEDTAVYYCARDRWPYFFDYWGQGTLVTVSS
VL: DIQMTQSPSSLSASVGDRVTITCRASENIYSNLAWYQQKPGKSPKLLVYGLKNLADGVPSRFSGSGSGTDYTLTISSLQPEDFATYYCQHFWTTPRTFGGGTKVEIK
notes: Fab with 8xHis tag
In experiment [1], B6 showed a Kd of 0.0131 nM, a koff of 6.76e-05 s⁻¹ and a kon of 5.15e+06 M⁻¹ s⁻¹. Moreover, the “Fold Improvement in KD @ 25° C.” value in experiment [2] stood at 25.7 fold. In addition, the “Enrichment ratio (at the highest selection stringency)” value in experiment [10] was determined as 2.9 ratio.

B7: K12 Fab (VL W92I) (Fab, V domains shown)
VH: EVQLVESGGGLVQPGGSLRLSCAASGFTFSNYAMSWVRQAPGKGLEWVATVTEGGDYNYYLDDVKGRFTISRDNAKNSLYLQMNSLRAEDTAVYYCARDRWPYFFDYWGQGTLVTVSS
VL: DIQMTQSPSSLSASVGDRVTITCRASENIYSNLAWYQQKPGKSPKLLVYGAKNLADGVPSRFSGSGSGTDYTLTISSLQPEDFATYYCQHFITTPRTFGGGTKVEIK
notes: Fab with 8xHis tag
In experiment [1], B7 yielded a Kd of 0.0411 nM, a koff of 0.00023 s⁻¹ and a kon of 5.58e+06 M⁻¹ s⁻¹. Besides, in experiment [11], the “Enrichment ratio (at the highest selection stringency)” value is 3.36 ratio. For the same molecule, the “Fold Improvement in KD @ 25° C.” value in [2] is 8.2 fold.

B8: K15 Fab (VL T94V) (Fab, V domains shown)
VH: EVQLVESGGGLVQPGGSLRLSCAASGFTFSNYAMSWVRQAPGKGLEWVATVTEGGDYNYYLDDVKGRFTISRDNAKNSLYLQMNSLRAEDTAVYYCARDRWPYFFDYWGQGTLVTVSS
VL: DIQMTQSPSSLSASVGDRVTITCRASENIYSNLAWYQQKPGKSPKLLVYGAKNLADGVPSRFSGSGSGTDYTLTISSLQPEDFATYYCQHFWTVPRTFGGGTKVEIK
notes: Fab with 8xHis tag
In [1], B8 displayed a Kd of 0.12 nM, a koff of 0.00068 s⁻¹ and a kon of 5.67e+06 M⁻¹ s⁻¹. The “Fold Improvement in KD @ 25° C.” value in experiment [2] was 2.81 fold. In addition, the “Enrichment ratio (at the highest selection stringency)” value in [12] worked out at 0.987 ratio.

B9: K4 Fab (VL W92L) (Fab, V domains shown)
VH: EVQLVESGGGLVQPGGSLRLSCAASGFTFSNYAMSWVRQAPGKGLEWVATVTEGGDYNYYLDDVKGRFTISRDNAKNSLYLQMNSLRAEDTAVYYCARDRWPYFFDYWGQGTLVTVSS
VL: DIQMTQSPSSLSASVGDRVTITCRASENIYSNLAWYQQKPGKSPKLLVYGAKNLADGVPSRFSGSGSGTDYTLTISSLQPEDFATYYCQHFLTTPRTFGGGTKVEIK
notes: Fab with 8xHis tag
In [1], B9 returned a Kd of 0.147 nM, a koff of 0.000751 s⁻¹ and a kon of 5.12e+06 M⁻¹ s⁻¹. For the same molecule, the “Fold Improvement in KD @ 25° C.” value in [2] came out at 2.29 fold. In experiment [13], the “Enrichment ratio (at the highest selection stringency)” value is 0.416 ratio.
